From patent publication US20100105141 come the findings set out here.

Holding throughout (experiment): SPR
For orientation: In SPR one partner is held on a chip, and binding of the other changes the refractive index at the surface.

Data set [1] concerns L7-1C03-A5 (EsR1) L55M,H64A,F67V,S85I,F86M,H100C,R104G,P105F,K108Q,L113A,Q116S,N129H,L134M,S135Q,V137A,H139I,E147L,H151L,L170V,I174L,F177N (synthetic). The note with it: ka 4.7e4 M-1 s-1, kd 7.8e-3 s-1.
Data set [2] concerns the target L7-1F08-A11 (L7-A11, EsR2) L55M,H64A,F67Y,F86M,H100C,R104G,P105F,K108Q,L113A,Q116S,L134M,S135Q,H139I,F140Y,E147L,H151L,L170V,I174L,F177K (synthetic) (UniProt P04483). The note with it: ka 7.1e4 M-1 s-1, kd 1.7e-2 s-1.
Data set [3] addresses L7-1G06-B2 L55M,H64A,F67Y,F86M,H100C,R104G,P105F,K108Q,L113A,Q116S,L117M,L134M,S135Q,H139I,F140Y,E147L,H151L,L170V,I174L,F177K (synthetic) (UniProt P04483). The note with it: ka 4.6e4 M-1 s-1, kd 1.9e-2 s-1.
In data set [4] the test system is L7-3E03-D1 (EsR4) L55M,H64A,F67Y,F86M,H100C,R104G,P105F,K108Q,L113A,Q116S,N129H,L131M,L134M,S135Q,V137A,H139I,F140Y,E147L,H151L,L170V,I174L,F177K (synthetic). Conditions: ka 5.5e4 M-1 s-1, kd 1.1e-2 s-1.
The target of data set [5] is wt TetR(B) (Tn10, Gly inserted after Met1) (Escherichia coli) (UniProt P04483). The note with it: ka 3.3e5 M-1 s-1, kd 3.0e-3 s-1; operator sequence used on chip not stated.

Consider tet operator (Biacore), for which the dissociation constant (Kd) (usually the concentration at which binding is half-saturated) is 150 nM in data set [1]; 250 nM in data set [2]; 430 nM in data set [3]; 200 nM in data set [4]; 9 nM in data set [5].
